The assay concerns the target CD40 on the surface of mature dendritic cells (mDC) (human) (UniProt P25942). Put plainly: cell-based or functional assay.

Sequence of CD40 on the surface of mature dendritic cells (mDC) (human) (P25942 21-277): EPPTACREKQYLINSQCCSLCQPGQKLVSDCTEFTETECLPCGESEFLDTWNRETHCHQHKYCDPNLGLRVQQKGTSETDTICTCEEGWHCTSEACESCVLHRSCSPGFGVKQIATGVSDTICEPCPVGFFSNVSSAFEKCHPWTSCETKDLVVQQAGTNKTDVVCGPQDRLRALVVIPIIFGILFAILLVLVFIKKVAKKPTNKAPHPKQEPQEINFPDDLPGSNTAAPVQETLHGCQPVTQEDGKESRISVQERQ

B1: Mitazalimab (antibody, INN chains, looked up, V domains shown)
VH: EVQLLESGGGLVQPGGSLRLSCAASGFTFSTYGMHWVRQAPGKGLEWLSYISGGSSYIFYADSVRGRFTISRDNSENALYLQMNSLRAEDTAVYYCARILRGGSGMDLWGQGTLVTVSS
VL: QSVLTQPPSASGTPGQRVTISCTGSSSNIGAGYNVYWYQQLPGTAPKLLIYGNINRPSGVPDRFSGSKSGTSASLAISGLRSEDEADYYCAAWDKSISGLVFGGGTKLTVL
Molecule B1 registered a CD83+ (%) of mDC, agonist at 2 µg/mL (control group 81.00) of 95.7% and an IL-12p70 (pg/mL), agonist at 2 µg/mL (control group 50.0) of 1470 pg/mL.

B2: Cifurtilimab (antibody, INN chains, looked up, V domains shown)
VH: EVQLVESGGGLVQPGGSLRLSCAASGYSFTGYYIHWVRQAPGKGLEWVARVIPNAGGTSYNQKFKGRFTLSVDNSKNTAYLQMNSLRAEDTAVYYCAREGIYWWGQGTLVTVSS
VL: DIQMTQSPSSLSASVGDRVTITCRSSQSLVHSNGNTFLHWYQQKPGKAPKLLIYTVSNRFSGVPSRFSGSGSGTDFTLTISSLQPEDFATYFCSQTTHVPWTFGQGTKVEIK
Molecule B2 had a CD83+ (%) of mDC at 0.001 µg/mL Cifurtilimab of 83.4%, a CD83+ (%) of mDC at 0.01 µg/mL Cifurtilimab of 84.6%, a CD83+ (%) of mDC at 0.1 µg/mL Cifurtilimab of 93.3% and a CD83+ (%) of mDC at 1 µg/mL Cifurtilimab of 94.1%. Also, the CD83+ (%) of mDC at 3 µg/mL Cifurtilimab turned out to be 95.7%; the CD83+ (%) of mDC at 10 µg/mL Cifurtilimab was found to be 95.7%; the CD83+ (%) of mDC, agonist at 2 µg/mL (control group 81.00) is 93.2%; the CD83+ (%), Cifurtilimab together with Atezolizumab, batch 1 (control with Atezolizumab alone 92.69) stood at 96.9%. For the same molecule, the CD83+ (%), Cifurtilimab together with Atezolizumab, batch 2 (control with Atezolizumab alone 64.27) was found to be 92.3%; the CD83+ (%), Cifurtilimab together with Atezolizumab, batch 3 (control with Atezolizumab alone 89.18) was determined as 97.6%; the CD83+ (%), Cifurtilimab together with Atezolizumab, batch 4 (control with Atezolizumab alone 75.24) came to 96.1%; the IL-12p70 (pg/mL) at 0.001 µg/mL Cifurtilimab turned out to be 10.2 pg/mL. This molecule also displayed an IL-12p70 (pg/mL) at 0.01 µg/mL Cifurtilimab of 10 pg/mL, an IL-12p70 (pg/mL) at 0.1 µg/mL Cifurtilimab of 309 pg/mL, an IL-12p70 (pg/mL) at 1 µg/mL Cifurtilimab of 312 pg/mL and an IL-12p70 (pg/mL) at 3 µg/mL Cifurtilimab of 397 pg/mL. The IL-12p70 (pg/mL) at 10 µg/mL Cifurtilimab stood at 402 pg/mL; the IL-12p70 (pg/mL), Cifurtilimab together with Atezolizumab, batch 1 (control with Atezolizumab alone 4.1) was 450 pg/mL; the IL-12p70 (pg/mL), Cifurtilimab together with Atezolizumab, batch 2 (control with Atezolizumab alone 4.8) worked out at 1220 pg/mL; the IL-12p70 (pg/mL), Cifurtilimab together with Atezolizumab, batch 3 (control with Atezolizumab alone 5.7) worked out at 1110 pg/mL. The molecule also returned an IL-12p70 (pg/mL), Cifurtilimab together with Atezolizumab, batch 4 (control with Atezolizumab alone 5.0) of 454 pg/mL; an IL-12p70 (pg/mL), agonist at 2 µg/mL (control group 50.0) of 1490 pg/mL; a functional and activity indices of mDC (CD83, IL-12, T cell activation) against antibody concentration greater than 0.1 µg/mL; an increase of IFN-γ secreting T cells over control, Cifurtilimab together with Atezolizumab of 21.8%. Moreover, the increase rate of CD83 positive ratio over control, Cifurtilimab together with Atezolizumab is 19.1%; the mean CD83+ cells (%), Cifurtilimab together with Atezolizumab (control 80.35%) amounted to 95.7%; the mean IL-12 secretion, Cifurtilimab together with Atezolizumab (control 4.9 pg/mL) was found to be 746 pg/mL.

The values above are taken from patent US12440565.
